Measurements taken from publication PMC3891018 (Scientific Reports, 2014).

Target: H-ficolin (human, UniProt O75636 24-299)
Experiment: SPR

Chain of H-ficolin (O75636 24-299): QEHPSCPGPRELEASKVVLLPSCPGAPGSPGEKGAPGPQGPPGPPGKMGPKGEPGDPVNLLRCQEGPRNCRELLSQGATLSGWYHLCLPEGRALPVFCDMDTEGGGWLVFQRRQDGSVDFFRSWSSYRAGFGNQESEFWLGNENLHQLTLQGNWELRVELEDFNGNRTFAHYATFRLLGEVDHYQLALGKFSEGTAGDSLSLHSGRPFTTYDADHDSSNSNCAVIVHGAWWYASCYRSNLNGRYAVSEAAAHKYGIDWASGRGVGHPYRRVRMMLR

Kd [nM] | Binder
~1000 | DTLMISRTPEVTCVV [nIgG peptide DTLMISRTPEVTCVV 278-292 (peptide 1)]
~1000 | LTCLVKGFYPSDI [nIgG peptide LTCLVKGFYPSDI 394-406 (peptide 6)]
